Assay [1] concerns the target T1, CD22-FL-Fc (UniProt P20273 20-687).
T1 construct: domain: full-length with all 7 external domains; also called CD22 full length-Fc; CD22 full-length with all 7 external domains; not shown: Fc part not described
As to the kind of experiment: NFAT-luciferase activation of CAR JNL cells on plates coated with CD22-FL-Fc, CD22-D567-Fc or CD22-D67. Here is the method:
(§1) Briefly the experiments were performed as follows. A lentiviral vector (pELPS) carrying a nucleic acid, encoding a CD22 CAR with a CD22-binding scFv domain was introduced by electroporation into a Jurkat T cell line modified to express luciferase under the control of an NFAT response element (JNL). The cells were cultured and allowed to express the CAR construct. The electroporated cells were applied to a plate coated with the target antigen (CD22). Detection of luciferase signal in the coated plate was indicative of binding activity of the CD22 CAR to its antigen, leading to activation of the T cells and expression of luciferase.
Three different target proteins (CD22-FL-Fc, CD22-D567-Fc, and CD22-D67) were used to coat the tissue culture plates; a negative control (Fc) was also included. A mesothelin binding CAR (Meso-G07) was used as a negative control. […] Domain mapping was performed on CD22 binding domains. Three different forms of antigens were used: CD22 full-length with all 7 external domains, Domain567 (in which domains 1-4 were deleted) and Domain67 (in which domains 1-5 were deleted).

Assay [2] deals with CD123 on target cells (MOLM14, MOLM13, primary B-ALL blasts) (human), P26951. As to the kind of experiment: cell-based or functional assay.
CD123 on target cells (MOLM14, MOLM13, primary B-ALL blasts) (human), P26951, sequence (P26951 19-378): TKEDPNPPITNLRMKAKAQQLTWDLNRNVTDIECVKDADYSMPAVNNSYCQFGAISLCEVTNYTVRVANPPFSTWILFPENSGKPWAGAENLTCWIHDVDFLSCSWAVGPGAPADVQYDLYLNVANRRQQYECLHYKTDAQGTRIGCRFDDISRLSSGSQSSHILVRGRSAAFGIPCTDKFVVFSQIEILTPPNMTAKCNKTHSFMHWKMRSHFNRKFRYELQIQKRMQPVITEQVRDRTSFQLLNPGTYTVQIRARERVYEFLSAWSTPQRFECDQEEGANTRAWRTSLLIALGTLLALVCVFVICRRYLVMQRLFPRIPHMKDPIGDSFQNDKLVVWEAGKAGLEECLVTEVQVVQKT
The target in assay [3] is T1, CD22-FL-Fc. As to the kind of experiment: NFAT-luciferase activation of CAR JNL cells on plates coated with CD22 full length-Fc, CD22 D567-Fc or Fc only. On the procedure: as §1
CAR constructs containing these scFvs were tested for activity in an NFAT assay as described above. […] The bars in the figure represent, from left to right, CD22 full length-Fc; CD22 D567-Fc; and an Fc only negative control used for coating of the plates.

13 molecules from US20160362472A1 (published 2016) can be followed below.

B1: CAR22-58 (scFv)
scFv: EVQLQQSGPGLVNPSQTLSITCAISGDSVSSNSAAWNWIRQSPSRGLEWLGRTFYRSKWYNDYAVSVKGRITISPDTSKNQFSLQLNSVTPEDTAVYYCAGGDYYYGLDVWGQGTTVTVSSGGGGSGGGGSGGGGSQSALTQPASVSGSPGQSITISCTGSSSDVGGYNSVSWYQQHPGKAPKLMIYEVINRPSGVSHRFSGSKSGNTASLTISGLQAEDEADYYCSSYTSSSTYVFGTGTKVTVLG
notes: scFv domain of a CAR expressed on JNL cells; also called CD22-58
Regarding B1, the binding result with CD22-FL-Fc [1] was “binds”.

B2: CAR22-53 (scFv)
scFv: EVQLQQSGPGLVKPSQTLSLTCAISGDSVSSNSAAWNWIRQSPSRGLEWLGRTYYRSKWYSDYAVSVKSRITINPDTSKNQFSLQLNSVTPEDTAVYYCARDPYDFWSGYPDAFDIWGQGTMVTVSSGGGGSGGGGSGGGGSQSALTQPASVSGSPGQSITISCTGTSSDVGGYNYVSWYQQHPGKAPKVIISEVNNRPSGVSHRFSGSKSGNTASLTISGLQAEDEADYFCSSYTSGRTLYVFGTGSKVTVLG
notes: scFv domain of a CAR on JNL cells or T cells; also called CD22-53; hCD22-53
In the case of B2, in the assay with CD22-FL-Fc [1], the binding result is recorded as “binds”.

B3: CAR123-3 (scFv, V domains shown)
VH: QVQLVQSGAEVKKPGASVKVSCKASGYIFTGYYIHWVRQAPGQGLEWMGWINPNSGGTNYAQKFQGRVTMTRDTSISTAYMELSGLRSDDPAVYYCARDMNILATVPFDIWGQGTLVTVSS
VL: DIQLTQSPSSLSASVGDRVTITCRASQSISSYLNWYQQKPGKAPKLLIYAASSLQSGVPSRFSGSGSGTDFTLTVNSLQPEDFATYYCQQGDSVPLTFGGGTKVEIK
As for B3, the CD107a degranulation, 2-hr in vitro assay in assay [2] was found to be 80%.

B4: CAR123-4 (scFv, V domains shown)
VH: QVQLQQSGAEVKKSGASVKVSCKASGYTFTDYYMHWLRQAPGQGLEWMGWINPNSGDTNYAQKFQGRVTLTRDTSISTVYMELSRLRSDDTAVYYCARDMNILATVPFDIWGQGTMVTVSS
VL: DIQMTQSPSSLSASVGDRVTITCRASQSISSYLNWYQQKPGKAPKLLIYAASSLQSGVPSRFSGSGSGTDFTLTISSLQPEDFATYYCQQGDSVPLTFGGGTKVEIK
For B4, the CD107a degranulation, 2-hr in vitro assay in assay [2] was found to be 80%.

B5: CAR22-62 (scFv)
scFv: EVQLQQSGPGLVKPSQTLSLTCAISGDSVLSNSDTWNWIRQSPSRGLEWLGRTYHRSTWYDDYASSVRGRVSINVDTSKNQYSLQLNAVTPEDTGVYYCARDRLQDGNSWSDAFDVWGQGTMVTVSSGGGGSGGGGSGGGGSQSALTQPASVSGSPGQSITISCTGTSSDVGGYNYVSWYQQHPGKAPKLMIYDVSNRPSGVSNRFSGSKSGNTASLTISGLQAEDEADYYCSSYTSSSTLYVFGTGTKVTVLG
notes: scFv domain of a CAR expressed on JNL cells; also called CD22-62
Consider B5, for which the binding result in the assay with CD22-FL-Fc [1] was “binds”.

B6: CAR22-63 (scFv)
scFv: EVQLQQSGPGLVKPSQTLSLTCAISGDSVLSNSDTWNWIRQSPSRGLEWLGRTYHRSTWYDDYASSVRGRVSINVDTSKNQYSLQLNAVTPEDTGVYYCARDRLQDGNSWSDAFDVWGQGTMVTVSSGGGGSGGGGSGGGGSQSALTQPASVSGSPGQSITISCTGTSSDVGGYNYVSWYQQHPGKAPKLMIYEVSNRPSGVSNRFSGSKSGNTASLTISGLQAEDEADYYCSSYTSSSTLYIFGTGTKVTVLG
notes: scFv domain of a CAR expressed on JNL cells; also called CD22-63
With B6, the binding result with CD22-FL-Fc [1] is listed as “binds”.

B7: CAR22-60 (scFv)
scFv: EVQLQQSGPGLVKPSQTLSLTCAISGDSVLSNSDTWNWIRQSPSRGLEWLGRTYHRSTWYDDYASSVRGRVSINVDTSKNQYSLQLNAVTPEDTGVYYCARDRLQDGNSWSDAFDVWGQGTMVTVSSGGGGSGGGGSGSGGSQSALTQPASVSGSPGQSITFSCTGTSSDIGGYNYVSWYQQHPGKAPKLMIYEVSNRPSGVSNRFSGTKSGNTASLTISGLQAEDEADYYCSSYTSSSTLYVFGTGTKLTVLG
notes: scFv domain of a CAR expressed on JNL cells; also called CD22-60
Regarding B7, the binding result with CD22-FL-Fc [1] is listed as “binds”.

B8: CAR22-59 (scFv)
scFv: EVQLQQSGPGLVKPSQTLSLTCAISGDSVLSNSDTWNWIRQSPSRGLEWLGRTYHRSTWYDDYASSVRGRVSINVDTSKNQYSLQLNAVTPEDTGVYYCARDRLQDGNSWSDAFDVWGQGTMVTVSSGGGGSGGGGSGGGGSQSALTQPASVSGSPGQSITISCTGSSSDIGGFNYVSWYQQHAGEAPKLMIYEVTNRPSGVSDRFSGSKSDNTASLTISGLQAEDEADYYCSSYASGSPLYVFGTGTKVTVLG
notes: scFv domain of a CAR expressed on JNL cells; also called CD22-59
On to B8, for which the binding result with CD22-FL-Fc [1] is given as “binds”.

B9: CAR22-61 (scFv)
scFv: QVQLQESGPGLVKPSQTLSLTCAISGDSVLSNSDTWNWIRQSPSRGLEWLGRTYHRSTWYDDYASSVRGRVSINVDTSKNQYSLQLNAVTPEDTGVYYCARDRLQDGNSWSDAFDVWGQGTMVTVSSGGGGSGGGGSGSGGSQSALTQPASVSGSPGQSITISCTGTSSDVGGYNYVSWYQQHPGKAPKLMIYEVSNRPSGVSNRFSGSKSGNTASLTISGLQAEDEADYYCSSYTSSSTLYVFGTGTKVTVLG
notes: scFv domain of a CAR expressed on JNL cells; also called CD22-61
Take B9: the binding result with CD22-FL-Fc [1] was “binds”.

B10: CAR 22-57 (scFv)
scFv: EVQLQQSGPGLVKPSQTLSLTCAISGDSVSNNNAAWNWIRQSPSRGLEWLGRTYHRSTWYNDYVGSVKSRITINPDTSKNQFSLQLNSVTPEDTAVYYCARETDYGDYGAFDIWGQGTTVTVSSGGGGSGGGGSGGGGSQSALTQPASVSGSPGQSITISCTGSRNDIGAYESVSWYQQHPGNAPKLIIHGVNNRPSGVFDRFSVSQSGNTASLTISGLQAEDEADYYCSSHTTTSTLYVFGTGTKVTVLG
notes: scFv domain of a CAR expressed on JNL cells; also called CD22-57
In the case of B10, in the assay with CD22-FL-Fc [1], the binding result is on record as “binds”.

B11: CAR22-12 (scFv)
scFv: EVQLQQSGPGLVKPSQTLSLTCAISGDSVLSNSDTWNWIRQSPSRGLEWLGRTYHRSTWYDDYASSVRGRVSINVDTSKNQYSLQLNAVTPEDTGVYYCARDRLQDGNSWSDAFDVWGQGTMVTVSSGGGGSGGGGSGGGGSQSALTQPASASGSPGQSVTISCTGTSSDVGGYNYVSWYQQHPGKAPKLMIYDVSNRPSGVSNRFSGSKSGNTASLTISGLQAEDEADYYCSSYTSSSTLYVFGTGTQLTVL
notes: scFv domain of a CAR on T cells or JNL cells; also called CD22 CAR clone 12; hCD22-12
For B11, the binding result with CD22-FL-Fc [1] was “binds”.

B12: CAR22-65 (scFv)
scFv: EVQLQQSGPGLVKPSQTLSLTCAISGDSMLSNSDTWNWIRQSPSRGLEWLGRTYHRSTWYDDYASSVRGRVSINVDTSKNQYSLQLNAVTPEDTGVYYCARVRLQDGNSWSDAFDVWGQGTMVTVSSGGGGSGGGGSGGGGSQSALTQPASASGSPGQSVTISCTGTSSDVGGYNYVSWYQQHPGKAPKLMIYDVSNRPSGVSNRFSGSKSGNTASLTISGLQAEDEADYYCSSYTSSSTLYVFGTGTQLTVL
notes: also called CD22-65
Turning to B12, in the assay with CD22-FL-Fc [3], the binding result is “binds”.

B13: CAR22-64 (scFv)
scFv: EVQLQQSGPGLVKPSQTLPLTCAISGDSVLSNSDTWNWIRQSPSRGLEWLGRTYHRSTWYDDYASSVRGRVSINVDTSKNQYSLQLNAVTPEDTGVYYCARVRLQDGNSWSDAFDVWGQGTMVTVSSGGGGSGGGGSGGGGPQSALTQPASASGSPGQSVTISCTGTSSDVGGYNYVSWYQQHPGKAPKLMIYDVSNRPSGVSNRFSGSKSGNTASLTISGLQAEDEADYYCSSYTSSSTLYVFGTGTQLTVL
notes: also called CD22-64
B13: the binding result with CD22-FL-Fc [3] is recorded as “binds”.
